Two proteins from article PMC7196598, “Architecture of the herpesvirus genome-packaging complex and implications for DNA translocation” (Protein & Cell, 2020) can be followed below.

Series [1] deals with the molecule itself. Nature of the series: cryo-EM structure; purified terminase complex (1 mg/mL), apo or with ADP•BeF3 and pac2 DNA (58 bp; DNA not visible); hexameric and dodecameric assemblies, block-based reconstruction of one terminase complex.
Series [2] deals with the molecule itself. Nature of the series: AUC; sedimentation velocity, Beckman XL-I, 20 °C, 20 mmol/L Hepes, 300 mmol/L NaCl, pH 7.5, A280 ~0.8, 20,000 rpm; shown with SDS-PAGE and electron microscopy (Fig. 1B).

“And” between values parts separate entries of the source, which are not always exact repeats. Equal values may be shown once.

B1: HSV1-pUL15 (residues 1–737), ATPase/terminase subunit of the herpesvirus terminase complex (natural protein)
chain: MFGQQLASDVQQYLERLEKQRQLKVGADEASAGLTMGGDALRVPFLDFATATPKRHQTVVPGVGTLHDCCEHSPLFSAVARRLLFNSLVPAQLKGRDFGGDHTAKLEFLAPELVRAVARLRFKECAPADVVPQRNAYYSVLNTFQALHRSEAFRQLVHFVRDFAQLLKTSFRASSLTETTGPPKKRAKVDVATHGRTYGTLELFQKMILMHATYFLAAVLLGDHAEQVNTFLRLVFEIPLFSDAAVRHFRQRATVFLVPRRHGKTWFLVPLIALSLASFRGIKIGYTAHIRKATEPVFEEIDACLRGWFGSARVDHVKGETISFSFPDGSRSTIVFASSHNTNGIRGQDFNLLFVDEANFIRPDAVQTIMGFLNQANCKIIFVSSTNTGKASTSFLYNLRGAADELLNVVTYICDDHMPRVVTHTNATACSCYILNKPVFITMDGAVRRTADLFLADSFMQEIIGGQARETGDDRPVLTKSAGERFLLYRPSTTTNSGLMAPDLYVYVDPAFTANTRASGTGVAVVGRYRDDYIIFALEHFFLRALTGSAPADIARCVVHSLTQVLALHPGAFRGVRVAVEGNSSQDSAVAIATHVHTEMHRLLASEGADAGSGPELLFYHCEPPGSAVLYPFFLLNKQKTPAFEHFIKKFNSGGVMASQEIVSATVRLQTDPVEYLLEQLNNLTETVSPNTDVRTYSGKRNGASDDLMVAVIMAIYLAAQAGPPHTFAPITRVS
notes: pUL15 of herpes simplex virus 1 (HSV1), tripartite terminase subunit 3; construct printed as residues 1–737, while the results say pUL15 is 735 residues in length (domains end at 735); Cloned in pFastBac-HTA; No tag cleavage is described; also called ATPase/terminase pUL15; source: Sf9, co-infected with two recombinant baculoviruses (co-expressed with pUL28 and pUL33), purified (Ni-NTA, Superose …)
For B1, the binding result in series [1] was “binds”.

B2: herpesvirus terminase complex (heterotrimer of pUL15, pUL28 and pUL33), wild type (complex)
chain 1: B1 chain
chain 2: MAAPVSEPTVARQKLLALLGQVQTYVFQIELLRRCDPHIGRGKLPQLKLNALQVRALRRRLRPGLEAQAGAFLTPLSVTLELLLEYAWREGERLLGSLETFATAGDVAAFFTETMGLARPCPYHQRVRLDTYGGTVHMELCFLHDVENFLKQLNYCHLITPSRGATAALERVREFMVGAVGSGLIVPPELSDPSHPCAVCFEELCVTANQGATIARRLADRICNHVTQQAQVRLDANELRRYLPHAAGLSDADRARALSVLDHALARTAGGDGQPHPSPENDSVRKEADALLEAHDVFQATTPGLYAISELRFWLASGDRAGQTTMDAFASNLTALARRELQQETAAVAVELALFGRRAEHFDRAFGSHLAALDMVDALIIGGQATSPDDQIEALIRACYDHHLTTPLLRRLVSPEQCDEEALRRVLARMGAGGAADAPKGGAGPDDDGDRVAVEEGARGLGAPGGGGEDEDRRRGPGGQGPETWGDIATQAAADVRERRRLYADRLTKRSLASLGRCVREQRGELEKMLRVSVHGEVLPATFAAVANGFAARARFCALTAGAGTVIDNRSAPGVFDAHRFMRASLLRHQVDPALLPSITHRFFELVNGPLFDHSTHSFAQPPNTALYYSVENVGLLPHLKEELARFIMGAGGSGADWAVSEFQRFYCFDGISGITPTQRAAWRYIRELIIATTLFASVYRCGELELRRPDCSRPTSEGRYRYPPGVYLTYDSDCPLVAIVESAPDGCIGPRSVVVYDRDVFSILYSVLQHLAPRLPDGGHDGPP
chain 3: MAGREGRTRQRTLRDTIPDCALRSQTLESLDARYVSRDGAHDAAVWFEDMTPAELEVVFPTTDAKLNYLSRTQRLASLLTYAGPIKAPDDAAAPQTPDTACVHGELLAAKRERFAAVINRFLDLHQILRG
notes: pUL15 of herpes simplex virus 1 (HSV1); construct printed as residues 1–737, while the results say pUL15 is 735 residues in length; pUL28 of herpes simplex virus 1 (HSV1); construct printed as residues 1–787; pUL33 of herpes simplex virus 1 (HSV1); construct printed as residues 1–132; One heterotrimer is one subunit of the hexameric ring; the hexamer and dodecamer are written as self-association …
As to B2, in series [2], the “stoichiometry N” value is 6 and 12.
